In PMC7615972, “Cachd1 interacts with Wnt receptors and regulates neuronal asymmetry in the zebrafish brain” (Science (New York, N.Y.), 2024):
Blank lines part the entries; values can stand above or below the binder they belong to.

Biological target: T1, purified mouse CACHD1 extracellular domain (CACHD1ECD) (mouse, UniProt Q6PDJ1 50-1109)
T1 construct: CACHD1, mouse, extracellular domain; Construct limits and tags are in the supplementary methods; also called mouse CACHD1ECD; source: purified recombinant
T1 sequence (looked up): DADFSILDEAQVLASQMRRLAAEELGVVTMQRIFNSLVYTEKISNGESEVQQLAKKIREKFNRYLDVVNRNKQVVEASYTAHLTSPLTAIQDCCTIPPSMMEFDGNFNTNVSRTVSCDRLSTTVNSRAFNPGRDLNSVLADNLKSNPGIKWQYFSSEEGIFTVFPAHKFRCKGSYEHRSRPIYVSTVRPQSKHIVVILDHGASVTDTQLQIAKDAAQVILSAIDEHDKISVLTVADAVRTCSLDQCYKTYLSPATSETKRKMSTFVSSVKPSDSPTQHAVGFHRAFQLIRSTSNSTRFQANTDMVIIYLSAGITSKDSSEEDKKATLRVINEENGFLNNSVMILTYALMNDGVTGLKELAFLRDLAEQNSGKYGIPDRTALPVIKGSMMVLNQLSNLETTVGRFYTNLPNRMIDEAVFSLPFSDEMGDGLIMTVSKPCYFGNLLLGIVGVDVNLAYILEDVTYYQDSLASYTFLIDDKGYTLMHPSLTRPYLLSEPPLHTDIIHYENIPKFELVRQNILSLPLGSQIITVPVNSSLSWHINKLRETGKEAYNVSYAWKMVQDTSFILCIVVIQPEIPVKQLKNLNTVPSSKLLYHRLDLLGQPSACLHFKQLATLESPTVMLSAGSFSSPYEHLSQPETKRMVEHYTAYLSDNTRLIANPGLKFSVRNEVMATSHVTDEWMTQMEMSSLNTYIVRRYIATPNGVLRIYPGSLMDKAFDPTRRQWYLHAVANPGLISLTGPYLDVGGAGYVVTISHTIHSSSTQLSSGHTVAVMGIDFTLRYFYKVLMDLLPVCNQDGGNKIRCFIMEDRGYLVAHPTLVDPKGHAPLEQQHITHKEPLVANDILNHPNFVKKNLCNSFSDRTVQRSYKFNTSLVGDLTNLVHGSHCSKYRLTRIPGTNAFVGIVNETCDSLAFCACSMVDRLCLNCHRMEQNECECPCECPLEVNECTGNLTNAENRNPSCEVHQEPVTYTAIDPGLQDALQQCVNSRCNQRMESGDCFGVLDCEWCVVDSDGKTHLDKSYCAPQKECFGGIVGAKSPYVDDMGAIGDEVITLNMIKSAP
Assay: SPR; mouse CACHD1ECD as analyte; FZD CRDs or LRP6 fragments immobilised; equilibrium dissociation constants
Conditions: both partners purified

Kd: 480 ± 40 nM
B1: mouse FZD5 cysteine-rich domain (FZD5CRD) (domain or fragment)
chain: ASKAPVCQEITVPMCRGIGYNLTHMPNQFNHDTQDEAGLEVHQFWPLVEIHCSPDLRFFLCSMYTPICLPDYHKPLPPCRSVCERAKAGCSPLMRQYGFAWPERMSCDRLPVLGGDAEVLCMDYNRSEAT
notes: Frizzled-5, mouse, cysteine-rich domain (CRD); source: purified recombinant

Kd: 170 ± 10 nM
B2: human LRP6 membrane proximal fragment (LRP6_(P3E3P4E4)) (domain or fragment)
chain: VPEAFLLFSRRADIRRISLETNNNNVAIPLTGVKEASALDFDVTDNRIYWTDISLKTISRAFMNGSALEHVVEFGLDYPEGMAVDWLGKNLYWADTGTNRIEVSKLDGQHRQVLVWKDLDSPRALALDPAEGFMYWTEWGGKPKIDRAAMDGSERTTLVPNVGRANGLTIDYAKRRLYWTDLDTNLIESSNMLGLNREVIADDLPHPFGLTQYQDYIYWTDWSRRSIERANKTSGQNRTIIQGHLDYVMDILVFHSSRQSGWNECASSNGHCSHLCLAVPVGGFVCGCPAHYSLNADNRTCSAPTTFLLFSQKSAINRMVIDEQQSPDIILPIHSLRNVRAIDYDPLDKQLYWIDSRQNMIRKAQEDGSQGFTVVVSSVPSQNLEIQPYDLSIDIYSRYIYWTCEATNVINVTRLDGRSVGVVLKGEQDRPRAVVVNPEKGYMYFTNLQERSPKIERAALDGTEREVLFFSGLSKPIALALDSRLGKLFWADSDLRRIESSDLSGANRIVLEDSNILQPVGLTVFENWLYWIDKQQQMIEKIDMTGREGRTKVQARIAQLSDIHAVKELNLQEYRQHPCAQDNGGCSHICLVKGDGTTRCSCPMHLVLLQDELSCG
notes: LRP6, human, membrane proximal fragment P3E3P4E4; also called 3-4
